Test results published in publication PMC11065870.

What was measured:
[1] = mass photometry in GDN, super-dimer/heterodimer ratio; conditions: glycan changed form; control: fully sialylated WT
[2] = native MS, super-dimer vs heterodimer abundance; conditions: glycan changed form; control: fully glycosylated WT

B1: 4F2hc (4F2 cell-surface antigen heavy chain): neuraminidase (desialylated) (protein)
parent chain: MELQPPEASIAVVSIPRQLPGSHSEAGVQGLSAGDDSELGSHCVAQTGLELLASGDPLPSASQNAEMIETGSDCVTQAGLQLLASSDPPALASKNAEVTGTMSQDTEVDMKEVELNELEPEKQPMNAASGAAMSLAGAEKNGLVKIKVAEDEAEAAAAAKFTGLSKEELLKVAGSPGWVRTRWALLLLFWLGWLGMLAGAVVIIVRAPRCRELPAQKWWHTGALYRIGDLQAFQGHGAGNLAGLKGRLDYLSSLKVKGLVLGPIHKNQKDDVAQTDLLQIDPNFGSKEDFDSLLQSAKKKSIRVILDLTPNYRGENSWFSTQVDTVATKVKDALEFWLQAGVDGFQVRDIENLKDASSFLAEWQNITKGFSEDRLLIAGTNSSDLQQILSLLESNKDLLLTSSYLSDSGSTGEHTKSLVTQYLNATGNRWCSWSLSQARLLTSFLPAQLLRLYQLMLFTLPGTPVFSYGDEIGLDAAALPGQPMEAPVMLWDESSFPDIPGAVSANMTVKGQSEDPGSLLSLFRRLSDQRSKERSLLHGDFHAFSAGPGLFSYIRHWDQNERFLVVLNFGDVGLSAGLQASDLPASASLPAKADLLLSTQPGREEGSPLELERLKLEPHEGLLLRFPYAA
oligomerisation [1]: decreases | oligomerisation [2]: decreases
